Consider 103 substances from the supplement of paper PMC12042874.

± gives the uncertainty stated by the source.

The data set is described as follows: amyloid nucleation score (Sup35N fusion, yeast selection) (log enrichment); library NNK2; higher = more nucleation; inactive = no reads after selection. In a few lines: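 The nucleation score, computed with DiMSum, is the log enrichment of output over input reads, centred on the mode score of non-aggregating sequences. Sequences with under 100 input reads were dropped. Reads were generated by Illumina sequencing of plasmid inserts from psi-negative yeast with Sup35N fused to peptides of 20 random codons, induced with 100 μM copper sulfate for 24 hours and grown 7 days at 30°C on medium lacking adenine and uracil.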
With FCRIAATTRHMHGGLVGRWS, the amyloid nucleation score amounted to 1.04 ± 0.68. In turn, FCYAYTFMHEYLRGC registered an amyloid nucleation score of 0.737 ± 0.3. Take FDALY: the amyloid nucleation score stood at 0.025 ± 0.25. The substance FDFLSSFPRLWVRVEGIPCF gave an amyloid nucleation score of -0.994 ± 0.55. On to FDGLIFSITRTLVY, for which the amyloid nucleation score is -1.42 ± 1.1. In the case of FDLCTLFYNSRFHIIRYWVT it was “inactive”; in that of FDQSFFNLPQGTFLVLYSSA, “inactive”. The substance FDWFNAYSF had an amyloid nucleation score of 0.092 ± 0.61.

Regarding FDYAQRWSQP, the amyloid nucleation score was 0.121 ± 0.49. FEIGSV: the amyloid nucleation score entry was “inactive”. The substance FELLPTR came in with an amyloid nucleation score of 3.3 ± 0.079. Regarding FEMGFHVWDM, the amyloid nucleation score entry is “inactive”. With FENDFMRVSCDGSRGILCVL, the amyloid nucleation score came to 2.48 ± 0.11. Substance FEPWWCNSIMRLVVIEGEW came in with an amyloid nucleation score of 0.315 ± 0.46. Substance FFCMA yielded an amyloid nucleation score of 5.48 ± 0.056.

Turning to FFDRMLYLRVARCTTFWPVD, the amyloid nucleation score stood at 0.492 ± 0.64.

On to FFDYIGRYYNLKH, for which the amyloid nucleation score result was “inactive”.

Substance FFFDDSKVYQNWEEDVEGNQ returned an amyloid nucleation score of -0.389 ± 0.34.

As for FFFKSSLLR, the amyloid nucleation score was determined as 0.241 ± 0.8. As for FFFVFVGDVR, the figure is 2.08 ± 0.15; as for FFGAFGPRWGNYENITLCSY, “inactive”; as for FFIGIQQWSYHWPVVGVYNK, “inactive”. As for FFKLNVRERYWLVKGKSRFR, the figure is 2.96 ± 0.087; as for FFMYHAVL, 1.02 ± 0.34; as for FFNLNYMGFHSDIGSLIYPC, “inactive”. In the case of FFTMCVAMYVVRSAYGMHN, the amyloid nucleation score is -0.03 ± 0.44. In the case of FFTRRLNSNWMCFLADNCYR it was -0.439 ± 0.64; in that of FFWFQTSLDTPWKEVILVYI, -0.719 ± 0.79; in that of FFWNM, -0.274 ± 0.34. For FGCNSSGWNVKIPSGGLGNE, the amyloid nucleation score is -0.647 ± 0.53. FGDVQKPVRMLFVFSFWLLG yielded an amyloid nucleation score of -0.392 ± 0.79. As for FGFCGFMVHVGLVRDFLFC, the figure is 0.257 ± 0.56; as for FGFSEGEMVPSFI, -1.21 ± 1.

Take FGFVTKYFMGV: the amyloid nucleation score stood at 1.96 ± 0.23. For FGIFVNRLCFSIDSYAGNGK, the amyloid nucleation score was 6.605 ± 0.037.

Regarding FGKFFCCWSSLRNEKCYFAM, the amyloid nucleation score entry is “inactive”. FGKNYNFCNV showed an amyloid nucleation score of -0.184 ± 0.63. With FGKYDGTYRSPVGYGFMWS, the amyloid nucleation score is 0.397 ± 0.41. In the case of FGLDYVTYVRWAGVCHLLYF it was -0.56 ± 0.55; in that of FGLLLWYLCFSHIG, “inactive”; in that of FGLQMQAWREKDHQENGLIQ, 0.798 ± 0.31. For FGLTRPEKWEHLHVYCNYMS, the amyloid nucleation score amounted to 0.615 ± 0.38. FGLWQVPSGWNTADRA: the amyloid nucleation score is 0.743 ± 0.58. As for FGMILPFGDIFTLASDFRVR, the figure is -0.833 ± 1.1.

FGSLTMEEFGDGDVVSNNKG showed an amyloid nucleation score of -0.956 ± 0.31. The substance FGSVSSWELPRP displayed an amyloid nucleation score of 0.197 ± 0.63. Turning to FGTKHFVICSL, the amyloid nucleation score was -0.989 ± 0.76.

The substance FGYFNVHSKSSGIMKWCGQC registered an amyloid nucleation score of -0.612 ± 0.54.

As for FGYFYMKHLTPALMPYTGY, the amyloid nucleation score was -0.441 ± 1.1. Consider FGYMCEAPHRVDFRLFELLQ, for which the amyloid nucleation score entry is “inactive”. With FHDNVTQFFISISAKIYKA, the amyloid nucleation score came out at 4.45 ± 0.058. Substance FHGHQPYFWNVL gave an amyloid nucleation score of 0.326 ± 0.54. Turning to FHLRWRFSSSSNNITRRRCR, the amyloid nucleation score came to 0.115 ± 1.

FHNLASFVRKSRVYQHKRNA had an amyloid nucleation score of -0.231 ± 0.63.

Take FHQIKFRVSFMHCRTSSANI: the amyloid nucleation score was found to be 2.25 ± 0.089. In turn, FHRCSYLVT returned an amyloid nucleation score of 2.95 ± 0.09.

FHRNMMVLQCIRRVL: the amyloid nucleation score stood at 0.016 ± 1.1.

With FHSRAEICLIWNHIVQDWRN, the amyloid nucleation score stood at 3.58 ± 0.071. In the case of FHVKIGW it was -0.086 ± 0.33; in that of FIDIKSICCRHMNDWHCLSE, -0.603 ± 0.32; in that of FIFLNNIHTYIYYVR, 6.292 ± 0.034. In the case of FIGVSGLRCRGVMCSCYASY it was 1.53 ± 0.17.

Substance FIHTRRCKYGWTSRFKTLTW registered an amyloid nucleation score of 0.105 ± 1.1.

Regarding FIILI, the amyloid nucleation score is -1.29 ± 0.54. Regarding FIIVK, the amyloid nucleation score is -1.32 ± 0.41. For the substance FILDGSPVYWAIWKGG, the amyloid nucleation score was -1.46 ± 0.78. On to FIMYFVASRVNSYSSTLRVN, for which the amyloid nucleation score result was “inactive”. In the case of FINNNNGAPSRVHPTGALTR it was -0.357 ± 0.53.

FIPYNSW came in with an amyloid nucleation score of 0.689 ± 0.16. FIRHSTSALGP had an amyloid nucleation score of 0.889 ± 0.43. In the case of FISSSYSKEFSIYEFIDIFR, the amyloid nucleation score was -0.539 ± 0.54. The substance FITDYTWTYLHAWLFIHQGV returned an amyloid nucleation score of -0.705 ± 1.1. As to FKAVS, the amyloid nucleation score is -0.291 ± 1.1. FKFKLGNGIMDGSRMGHWAL: the amyloid nucleation score turned out to be 1.17 ± 0.47. In the case of FKGHHGHKVWETH it was -0.145 ± 1.1; in that of FKGVCCMHNELASIDQWVGG, 0.192 ± 0.56.

In the case of FKILFLAHRLTGLFKSSTGF, the amyloid nucleation score result is “inactive”. FKLGGSNVDDFFVFNWITVF yielded an amyloid nucleation score of -0.596 ± 0.76.

For the substance FKRDLMLYFCCSWCRKVCVY, the amyloid nucleation score is -0.432 ± 0.34. Substance FKSLLCLFAWRLVTFHVGE returned an amyloid nucleation score of -0.73 ± 1.1.

With FKTVCVGKCLVFMVTDAELI, the amyloid nucleation score was -1.49 ± 0.76.

In turn, FKYVFCSDEVGSMYVMCNCM returned an amyloid nucleation score of 8.568 ± 0.034. Substance FLDKCVRSSIENYWV gave an amyloid nucleation score of -0.074 ± 1.1. Consider FLFQWLLEKPYFYPAFCKCK, for which the amyloid nucleation score was determined as 4.49 ± 0.061. As to FLFVNDVGRE, the amyloid nucleation score result is “inactive”.

Turning to FLGTHVHANCSGYMVMIVYR, the amyloid nucleation score amounted to 7.773 ± 0.041.

In the case of FLIFSYIGLFSVISYRSARV, the amyloid nucleation score result is “inactive”. Substance FLIRDLAMHSSCSGSAIMIT showed an amyloid nucleation score of -0.713 ± 0.37. In the case of FLKIYPIPNCYERCCVHLPP it was 0.06 ± 0.61; in that of FLLPGCSLIFFYCSGCSMV, 5.014 ± 0.031; in that of FLMANSFFCNCFYTVYFTHC, 4.52 ± 0.047. As for FLMISWSLWGFFLY, the entry is “inactive”; as for FLMYK, -0.75 ± 0.76; as for FLRYHNAGALENIRYVSCLC, -0.253 ± 0.56.

Regarding FLSYFCIIFSTNLKLSSK, the amyloid nucleation score was found to be 2.1 ± 0.15. The substance FLSYLN had an amyloid nucleation score of -0.322 ± 0.5.

Turning to FLVIVQPSHFGCSKSNKGVW, the amyloid nucleation score was 0.453 ± 0.66. With FLVLGFMIWYTLRCLALTFS, the amyloid nucleation score result is “inactive”. On to FLWKRVVLSREEMAMDTTGS, for which the amyloid nucleation score was 5.47 ± 0.066.

Turning to FLWYGISVI, the amyloid nucleation score stood at 0.02 ± 0.4. On to FLYNFSHIRFVMYNRNESCF, for which the amyloid nucleation score came to 3.48 ± 0.13.

With FMIMNYNQLCINRCLNGGRV, the amyloid nucleation score worked out at 9.059 ± 0.044. As to FMLQVVGRVEVFH, the amyloid nucleation score came to 3.32 ± 0.066.
